We go through one substance from article PMC6351178.

The experiment addresses PitA (E. coli (endogenous in MG1655)) (UniProt P0AFJ7). As to the kind of experiment: cross-linking.
Sequence of UniProt P0AFJ7 (P0AFJ7 whole entry): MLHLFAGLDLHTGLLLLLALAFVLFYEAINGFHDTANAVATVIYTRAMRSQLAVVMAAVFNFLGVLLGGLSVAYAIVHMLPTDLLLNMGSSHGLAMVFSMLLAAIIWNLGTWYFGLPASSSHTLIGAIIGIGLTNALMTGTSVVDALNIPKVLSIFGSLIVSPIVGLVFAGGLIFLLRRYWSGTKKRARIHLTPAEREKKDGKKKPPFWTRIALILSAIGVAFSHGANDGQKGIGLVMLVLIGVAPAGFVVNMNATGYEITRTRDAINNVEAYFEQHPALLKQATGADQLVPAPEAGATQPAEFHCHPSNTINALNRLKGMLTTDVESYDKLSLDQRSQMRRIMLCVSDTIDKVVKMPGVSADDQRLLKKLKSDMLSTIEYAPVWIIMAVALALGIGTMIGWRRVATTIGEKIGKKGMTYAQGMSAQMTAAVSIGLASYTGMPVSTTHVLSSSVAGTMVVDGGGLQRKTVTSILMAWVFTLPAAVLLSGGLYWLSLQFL

Substance “MgtS-SPA (from UniProt A5A616 1-31) (natural protein)” came in with a stoichiometry N (MgtS-SPA per PitA) of 1.
